± gives the uncertainty stated by the source.
B1: Tyrosine-protein kinase Lck, residues 63 to 120; numbered along this chain, P06239 (parent)
chain: DNLVIALHSYEPSHDGDLGFEKGEQLRILEQSGEWWKAQSLTTGQEGFIPFNFVAKAN

Variants of: B1
Test: abundance fitness (aPCA) (normalised: wild type 0, dead -1); higher = more abundant; growth selection in yeast, the domain comes from the species named
Conditions: Homo sapiens

Abundance fitness, by site and new letter:
H8: G -0.295 ± 0.08; L -0.285 ± 0.083
E24: Y -0.829 ± 0.29; M -0.673 ± 0.15; L -0.999 ± 0.13; P -0.891 ± 0.15; N -0.608 ± 0.29; H -0.774 ± 0.15; G -0.725 ± 0.076; S -0.506 ± 0.094
Y10: N -0.587 ± 0.19; R -0.289 ± 0.079
S9: E -0.218 ± 0.1; A -0.235 ± 0.12; W -0.923 ± 0.15; L -0.84 ± 0.12; R -0.11 ± 0.072; N 0.045 ± 0.12; V -0.676 ± 0.11
Q31: I -0.552 ± 0.26; T -0.291 ± 0.12; A 0.032 ± 0.1; R 0.054 ± 0.081; Y -0.234 ± 0.17; D -0.011 ± 0.12; P -0.235 ± 0.15
G19: I -0.538 ± 0.22; D -0.648 ± 0.14; C -0.16 ± 0.11; M -0.31 ± 0.12; Y -0.55 ± 0.2; T -0.375 ± 0.13; R -0.142 ± 0.078
E11: Q -0.199 ± 0.16; I -0.177 ± 0.19; K 0.206 ± 0.19; N -0.171 ± 0.16; D -0.116 ± 0.12
E34: S -0.054 ± 0.081; W -0.34 ± 0.091; C -0.276 ± 0.11; T -0.092 ± 0.093; Q -0.149 ± 0.14
L26: S -0.84 ± 0.16; V -0.781 ± 0.12; H -0.728 ± 0.24; W -0.864 ± 0.15; Q -0.572 ± 0.22; P -0.909 ± 0.24; E -0.596 ± 0.19; I -0.648 ± 0.3; F -0.28 ± 0.18; M -0.126 ± 0.14
F48: K 0.115 ± 0.096; L 0.019 ± 0.07; M -0.063 ± 0.092; H -0.172 ± 0.17; T -0.115 ± 0.11; Q -0.274 ± 0.12; W 0.075 ± 0.077; S -0.308 ± 0.079
P50: L -0.995 ± 0.12; D -0.73 ± 0.3; W -0.709 ± 0.16; A -1 ± 0.2; V -0.936 ± 0.13; F -0.885 ± 0.21; E -1.21 ± 0.28
S13: C -0.047 ± 0.1; P -0.358 ± 0.094; Q -0.034 ± 0.12; H -0.174 ± 0.15
Q39: W -0.784 ± 0.12; K -0.042 ± 0.12; I -0.327 ± 0.17; D -1.03 ± 0.35; F -0.503 ± 0.2; T -0.278 ± 0.11; C -0.386 ± 0.13; A -0.361 ± 0.12
T42: R -0.059 ± 0.064; D -0.181 ± 0.13; K 0.042 ± 0.12; S -0.031 ± 0.078; W -0.24 ± 0.078; Q -0.057 ± 0.12; V -0.001 ± 0.11; E -0.015 ± 0.13
L7: S -0.21 ± 0.091; I -0.079 ± 0.22; E -0.217 ± 0.11; D -0.486 ± 0.13; P -0.38 ± 0.15; R -0.298 ± 0.084; Y -0.54 ± 0.22; H -0.429 ± 0.28
N2: D -0.193 ± 0.12; T -0.157 ± 0.14; Y -0.243 ± 0.37; E -0.541 ± 0.13; G -0.428 ± 0.13; W -0.526 ± 0.15; P -0.713 ± 0.38
K56: V -0.118 ± 0.085; A 0.019 ± 0.085; S -0.002 ± 0.085; M -0.146 ± 0.11; Y -0.138 ± 0.12; P 0.04 ± 0.095; F -0.087 ± 0.085
L3: I 0.091 ± 0.14; G -0.768 ± 0.12; R -0.178 ± 0.076
G44: E -0.222 ± 0.11; V -0.819 ± 0.1; L -0.271 ± 0.082; W -0.541 ± 0.11; M -0.272 ± 0.18; Y -0.467 ± 0.2; S -0.268 ± 0.088
D1: E -0.036 ± 0.14; Y -0.224 ± 0.31; N -0.115 ± 0.18; P -0.827 ± 0.32
E21: A -0.062 ± 0.086; M -0.134 ± 0.12; Y -0.415 ± 0.23
W35: R 0.091 ± 0.085; Q 0.069 ± 0.15; S 0.002 ± 0.11; D -0.444 ± 0.14; M 0.01 ± 0.12; A -0.044 ± 0.095
E30: I -0.586 ± 0.21; Y -0.362 ± 0.17; H -0.247 ± 0.13; D -0.087 ± 0.12; M -0.278 ± 0.19
N52: P -0.628 ± 0.12; F -0.589 ± 0.14; K 0.023 ± 0.14; R -0.017 ± 0.073; C -0.303 ± 0.14; T -0.207 ± 0.12; H -0.189 ± 0.11; L -0.624 ± 0.087
A57: V -0.023 ± 0.085; R -0.093 ± 0.087; W -0.132 ± 0.16; L 0.003 ± 0.095; C -0.244 ± 0.17; K -0.18 ± 0.17; N -0.614 ± 0.42; I -0.003 ± 0.19; G -0.076 ± 0.078; E 0.092 ± 0.15
A55: P -0.835 ± 0.18; W -0.515 ± 0.11; E 0.037 ± 0.09; G -0.007 ± 0.057; R -0.019 ± 0.06; V -0.021 ± 0.076
G16: Y -0.218 ± 0.18; T -0.152 ± 0.11; S -0.174 ± 0.074; I -0.322 ± 0.15; V -0.328 ± 0.081

Reference: the Human Domainome abundance scans (Beltran et al. 2025)
